This is an account of results in PMC8395244, “The Oxoglutarate Binding Site and Regulatory Mechanism Are Conserved in Ammonium Transporter Inhibitors GlnKs from Methanococcales” (International Journal of Molecular Sciences, 2021).

Experiment [1] has as its target MtGlnK1 (GlnK isoform 1 from Methanothermococcus thermolithotrophicus), recombinant, N-terminally tagged (Methanothermococcus thermolithotrophicus). In words: crystal structure; sitting drop at 18 °C; crystallised with or without 2 mM ATP, 2 mM 2OG and 2 mM MgCl2; solved by molecular replacement with PDB 2J9D.
Experiment [2] deals with MtGlnK2 (GlnK isoform 2 from Methanothermococcus thermolithotrophicus), recombinant, N-terminally tagged (Methanothermococcus thermolithotrophicus). Described as above.

The stoichiometry N is a count of units in the complex or per binding partner. Regarding “MtGlnK1 (GlnK isoform 1 from Methanothermococcus thermolithotrophicus), recombinant, N-terminally tagged (natural protein)”, in experiment [1], the stoichiometry N is 3. For “MtGlnK2 (GlnK isoform 2 from Methanothermococcus thermolithotrophicus), recombinant, N-terminally tagged (natural protein)”, the stoichiometry N in experiment [2] was 3.
